{"source": "paper PMC10397247", "experiment_in_all_cases": "two-hybrid library CCmax;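 also: natural log of median RNA to DNA barcode read ratio; higher means stronger binding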", "key": {"4H2729-AA": {"target": "T1, 4H2729-AA", "T1 chain": "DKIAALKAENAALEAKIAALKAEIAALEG", "settings": "mean of both orientations"}, "4H1867-AA": {"target": "T2, 4H1867-AA", "T2 chain": "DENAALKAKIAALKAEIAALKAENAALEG", "settings": "mean of both orientations"}, "4H2754-AA": {"target": "T3, 4H2754-AA", "T3 chain": "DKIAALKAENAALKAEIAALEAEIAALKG", "settings": "mean of both orientations"}, "4H335-AA": {"target": "T4, 4H335-AA", "T4 chain": "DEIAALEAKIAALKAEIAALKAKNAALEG", "settings": "mean of both orientations"}, "4H2151-AA": {"target": "T5, 4H2151-AA", "T5 chain": "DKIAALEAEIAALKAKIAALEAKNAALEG", "settings": "mean of both orientations"}, "4H3343-AA": {"target": "T6, 4H3343-AA", "T6 chain": "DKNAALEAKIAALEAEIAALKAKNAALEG", "settings": "mean of both orientations"}, "4H2883-AA": {"target": "T7, 4H2883-AA", "T7 chain": "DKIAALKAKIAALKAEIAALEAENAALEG", "settings": "mean of both orientations"}, "4H342-AA": {"target": "T8, 4H342-AA", "T8 chain": "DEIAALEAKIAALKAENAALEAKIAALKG", "settings": "mean of both orientations"}, "4H2165-AA": {"target": "T9, 4H2165-AA", "T9 chain": "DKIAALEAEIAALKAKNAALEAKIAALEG", "settings": "mean of both orientations"}, "4H122-AA": {"target": "T10, 4H122-AA", "T10 chain": "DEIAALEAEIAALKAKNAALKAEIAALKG"}, "4H2949-AA": {"target": "T11, 4H2949-AA", "T11 chain": "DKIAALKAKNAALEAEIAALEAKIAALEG", "settings": "mean of both orientations"}, "4H2944-AA": {"target": "T12, 4H2944-AA", "T12 chain": "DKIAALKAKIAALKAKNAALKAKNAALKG", "settings": "mean of both orientations"}, "4H3627-AA": {"target": "T13, 4H3627-AA", "T13 chain": "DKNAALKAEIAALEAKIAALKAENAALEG", "settings": "mean of both orientations"}, "4H2837-AA": {"target": "T14, 4H2837-AA", "T14 chain": "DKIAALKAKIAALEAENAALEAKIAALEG", "settings": "mean of both orientations"}, "4H3112-AA": {"target": "T15, 4H3112-AA", "T15 chain": "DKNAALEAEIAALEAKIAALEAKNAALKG", "settings": "mean of both orientations"}, "4H3606-AA": {"target": "T16, 4H3606-AA", "T16 chain": "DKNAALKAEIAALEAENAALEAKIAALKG", "settings": "mean of both orientations"}, "4H3844-AA": {"target": "T17, 4H3844-AA", "T17 chain": "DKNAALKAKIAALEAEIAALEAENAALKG", "settings": "mean of both orientations"}, "4H2642-AA": {"target": "T18, 4H2642-AA", "T18 chain": "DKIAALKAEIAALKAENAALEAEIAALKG", "settings": "mean of both orientations"}, "4H3921-AA": {"target": "T19, 4H3921-AA", "T19 chain": "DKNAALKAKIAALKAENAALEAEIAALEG", "settings": "mean of both orientations"}, "4H717-AA": {"target": "T20, 4H717-AA", "T20 chain": "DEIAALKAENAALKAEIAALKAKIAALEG", "settings": "mean of both orientations"}, "4H2277-AA": {"target": "T21, 4H2277-AA", "T21 chain": "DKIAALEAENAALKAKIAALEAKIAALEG", "settings": "mean of both orientations"}, "4H234-AA": {"target": "T22, 4H234-AA", "T22 chain": "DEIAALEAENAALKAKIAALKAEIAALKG", "settings": "mean of both orientations"}, "4H605-AA": {"target": "T23, 4H605-AA", "T23 chain": "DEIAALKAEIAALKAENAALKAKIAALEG", "settings": "mean of both orientations"}, "4H317-AA": {"target": "T24, 4H317-AA", "T24 chain": "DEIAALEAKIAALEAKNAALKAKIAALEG", "settings": "mean of both orientations"}, "4H993-AA": {"target": "T25, 4H993-AA", "T25 chain": "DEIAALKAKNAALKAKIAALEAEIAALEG", "settings": "mean of both orientations"}, "4H454-AA": {"target": "T26, 4H454-AA", "T26 chain": "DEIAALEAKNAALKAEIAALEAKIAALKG", "settings": "mean of both orientations"}, "4H906-AA": {"target": "T27, 4H906-AA", "T27 chain": "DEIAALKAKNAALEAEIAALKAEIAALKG", "settings": "mean of both orientations"}, "4H2617-AA": {"target": "T28, 4H2617-AA", "T28 chain": "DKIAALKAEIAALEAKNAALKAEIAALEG", "settings": "mean of both orientations"}, "4H2393-AA": {"target": "T29, 4H2393-AA", "T29 chain": "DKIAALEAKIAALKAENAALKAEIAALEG", "settings": "mean of both orientations"}, "4H566-AA": {"target": "T30, 4H566-AA", "T30 chain": "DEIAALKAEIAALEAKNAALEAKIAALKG", "settings": "mean of both orientations"}, "4H2190-AA": {"target": "T31, 4H2190-AA", "T31 chain": "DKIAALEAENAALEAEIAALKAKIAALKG", "settings": "mean of both orientations"}, "4H2078-AA": {"target": "T32, 4H2078-AA", "T32 chain": "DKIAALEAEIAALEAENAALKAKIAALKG", "settings": "mean of both orientations"}, "4H429-AA": {"target": "T33, 4H429-AA", "T33 chain": "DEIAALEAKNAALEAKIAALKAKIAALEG"}, "4H2354-AA": {"target": "T34, 4H2354-AA", "T34 chain": "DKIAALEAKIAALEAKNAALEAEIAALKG", "settings": "mean of both orientations"}, "4H678-AA": {"target": "T35, 4H678-AA", "T35 chain": "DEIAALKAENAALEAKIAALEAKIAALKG", "settings": "mean of both orientations"}, "4H881-AA": {"target": "T36, 4H881-AA", "T36 chain": "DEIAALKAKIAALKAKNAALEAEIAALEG", "settings": "mean of both orientations"}, "4H3427-AA": {"target": "T37, 4H3427-AA", "T37 chain": "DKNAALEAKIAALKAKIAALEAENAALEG", "settings": "mean of both orientations"}, "4H3655-AA": {"target": "T38, 4H3655-AA", "T38 chain": "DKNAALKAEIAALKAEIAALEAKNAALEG", "settings": "mean of both orientations"}, "4H2575-AA": {"target": "T39, 4H2575-AA", "T39 chain": "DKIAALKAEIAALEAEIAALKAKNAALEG", "settings": "mean of both orientations"}, "4H1324-AA": {"target": "T40, 4H1324-AA", "T40 chain": "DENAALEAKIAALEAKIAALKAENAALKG", "settings": "mean of both orientations"}, "4H2505-AA": {"target": "T41, 4H2505-AA", "T41 chain": "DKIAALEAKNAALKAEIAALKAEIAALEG", "settings": "mean of both orientations"}, "4H794-AA": {"target": "T42, 4H794-AA", "T42 chain": "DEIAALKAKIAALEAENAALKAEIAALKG", "settings": "mean of both orientations"}, "4H1552-AA": {"target": "T43, 4H1552-AA", "T43 chain": "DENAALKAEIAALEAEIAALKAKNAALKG", "settings": "mean of both orientations"}, "4H2466-AA": {"target": "T44, 4H2466-AA", "T44 chain": "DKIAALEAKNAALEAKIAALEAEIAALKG", "settings": "mean of both orientations"}, "4H1401-AA": {"target": "T45, 4H1401-AA", "T45 chain": "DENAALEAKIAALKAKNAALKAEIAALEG", "settings": "mean of both orientations"}, "4H48-AA": {"target": "T46, 4H48-AA", "T46 chain": "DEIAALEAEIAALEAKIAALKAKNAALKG"}, "4H1352-AA": {"target": "T47, 4H1352-AA", "T47 chain": "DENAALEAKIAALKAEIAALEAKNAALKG", "settings": "mean of both orientations"}, "4H1636-AA": {"target": "T48, 4H1636-AA", "T48 chain": "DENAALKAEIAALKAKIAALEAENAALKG", "settings": "mean of both orientations"}, "4H780-AA": {"target": "T49, 4H780-AA", "T49 chain": "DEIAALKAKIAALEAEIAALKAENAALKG", "settings": "mean of both orientations"}}, "data": [{"binder": "DEIAALEAEIAALKAKNAALKAEIAALKG", "note": "[4H122-AA]", "values": [{"measurement": "interaction score", "setting": "4H2729-AA", "value": 0.657}, {"measurement": "interaction score", "setting": "4H1867-AA", "value": 1.01}, {"measurement": "interaction score", "setting": "4H2754-AA", "value": 0.606}, {"measurement": "interaction score", "setting": "4H335-AA", "value": -1.07}, {"measurement": "interaction score", "setting": "4H2151-AA", "value": -1.58}, {"measurement": "interaction score", "setting": "4H3343-AA", "value": -1.31}, {"measurement": "interaction score", "setting": "4H2883-AA", "value": 0.209}, {"measurement": "interaction score", "setting": "4H342-AA", "value": 1.76}, {"measurement": "interaction score", "setting": "4H2165-AA", "value": -0.0868}, {"measurement": "interaction score", "setting": "4H122-AA", "value": 1.61}, {"measurement": "interaction score", "setting": "4H2949-AA", "value": -0.323}, {"measurement": "interaction score", "setting": "4H2944-AA", "value": -1.12}, {"measurement": "interaction score", "setting": "4H3627-AA", "value": -1.12}, {"measurement": "interaction score", "setting": "4H2837-AA", "value": 2.11}, {"measurement": "interaction score", "setting": "4H3112-AA", "value": -0.199}, {"measurement": "interaction score", "setting": "4H3606-AA", "value": 2.36}, {"measurement": "interaction score", "setting": "4H3844-AA", "value": -0.909}, {"measurement": "interaction score", "setting": "4H2642-AA", "value": 1.83}, {"measurement": "interaction score", "setting": "4H3921-AA", "value": 2.16}, {"measurement": "interaction score", "setting": "4H717-AA", "value": -1.17}, {"measurement": "interaction score", "setting": "4H2277-AA", "value": -1.29}, {"measurement": "interaction score", "setting": "4H234-AA", "value": -1.28}, {"measurement": "interaction score", "setting": "4H605-AA", "value": 0.129}, {"measurement": "interaction score", "setting": "4H317-AA", "value": -1.2}, {"measurement": "interaction score", "setting": "4H993-AA", "value": -1.48}, {"measurement": "interaction score", "setting": "4H454-AA", "value": -0.403}, {"measurement": "interaction score", "setting": "4H906-AA", "value": -1.43}, {"measurement": "interaction score", "setting": "4H2617-AA", "value": 1.96}, {"measurement": "interaction score", "setting": "4H2393-AA", "value": 1.93}, {"measurement": "interaction score", "setting": "4H566-AA", "value": 1.5}, {"measurement": "interaction score", "setting": "4H2190-AA", "value": 1.57}, {"measurement": "interaction score", "setting": "4H2078-AA", "value": 2.3}, {"measurement": "interaction score", "setting": "4H429-AA", "value": -0.548}, {"measurement": "interaction score", "setting": "4H2354-AA", "value": 0.207}, {"measurement": "interaction score", "setting": "4H678-AA", "value": 1.05}, {"measurement": "interaction score", "setting": "4H881-AA", "value": 1.43}, {"measurement": "interaction score", "setting": "4H3427-AA", "value": -0.449}, {"measurement": "interaction score", "setting": "4H3655-AA", "value": -1.14}, {"measurement": "interaction score", "setting": "4H2575-AA", "value": -0.393}, {"measurement": "interaction score", "setting": "4H1324-AA", "value": -1.09}, {"measurement": "interaction score", "setting": "4H2505-AA", "value": -1.39}, {"measurement": "interaction score", "setting": "4H794-AA", "value": 1.48}, {"measurement": "interaction score", "setting": "4H1552-AA", "value": -1.07}, {"measurement": "interaction score", "setting": "4H2466-AA", "value": 0.13}, {"measurement": "interaction score", "setting": "4H1401-AA", "value": -1.2}, {"measurement": "interaction score", "setting": "4H48-AA", "value": -0.383}, {"measurement": "interaction score", "setting": "4H1352-AA", "value": -1.3}, {"measurement": "interaction score", "setting": "4H1636-AA", "value": -1.44}, {"measurement": "interaction score", "setting": "4H780-AA", "value": -1.74}]}]}
